According to a protein production outcome set (Wang et al. 2014):

Experiment: label from the status in PepcDB records
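Further: failed if final PepcDB status was selected cloned or expressed and not failed if soluble or beyond.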

Sequence	protein production
MADHSLQRRLAAIVVADVVGYSRLMEADEAATLANLRELRSGVIEPAVMRHHGRIFKVMGDGFLIEFGSAVEAVAAALEMQRAATAVEASGDRRLLLRVGVNLGDVIDDGSDVLGDDVNVAARLQTQAAPGGICISANVHGEIDGKISDRFFDAGERYLKNLTRPVHVWHWPDALQSILPLPECPSIAVLPFTNMSGDEADAPFVDGLTEDLITDLSRTAGLFVIARNSVYVYKGKPVDVRLVAQELGVRYVLEGSARRAMGRVRINAQLVDTLAGQHLWADRFDRTVEDVFELQDEVNAKIVEALVGRLTIPTPRNRPKNFEAYDLCVRARLLTEESPQTEREAYMLLQRAVELEPSYAEALGLLAYNRWLAWTHFGEPEDPNRRMAATFAQKAVDLDPNDAGCRYVLGTILAYERRWEESEAAFAKALELDPNHADTWAAMSDMSVLDGRVADGLAQIEKALRLNPYPACWYLCHLGQAQYAARDYEAAAATLRRKDTYRTNSRKFLAATLAQLGHREEARRESELFLIAHPHFTIGHWLSSQPLRDASVRDHFVDGFRKAGLPEM	failed
MADKEAAFDDAVEERVINEEYKIWKKNTPFLYDLVMTHALEWPSLTAQWLPDVTRPDGKDFSIHRLVLGTHTSDEQNHLVIASVQLPNDDAQFDASHYDSEKGEFGGFGSVSGKIEIEIKINHEGEVNRARYMPQNPCIIATKTPSCDVLVFDYTKHPSKPDPSGECNPDLRLRGHQKEGYGLSWNPNLSGNLLSASDDHTICLWDISAVPKEGKVVDAKTIFTGHTAVVEDVSWHLLHESLFGSVADDQKLMIWDTRSNNTSKPSHSVDAHTAEVNCLSFNPYSEFILATGSADKTVALWDLRNLKLKLHSFESHKDEIFQVQWSPHNETILASSGTDRRLNVWDLSKIGEEQSPEDAEDGPPELLFIHGGHTAKISDFSWNPNEPWVICSVSEDNIMQVWQMAENIYNDEDTEGSVDPEGQGS	not failed
MADKTGTPHPLTEPGVWIERIGGRVFPPHLPALFLDRDGTINVDTDYPSDPAEIVLRPQMLPAIATANRAGIPVVVVTNQSGIARGYFGWSAFAAVNGRVLELLREEGVFVDMVLACAYHEAGVGPLAIPDHPMRKPNPGMLVEAGKRLALDLQRSLIVGDKLADMQAGKRAGLAQGWLVDGEAAVQPGFAIRPLRDSSELGDLLAAIETLGRDNRS	not failed
MADLRKAARGRECQVRIPGVCNGNPETSVLAHIRLTGLCGTGTKPPDLIATIACSACHDEIDRRTHFVDAGYAKECALEGMARTQVIWLKEGVIKA	not failed
MADLTDALIDAALERGRSAHANEPRAAKARYDRSSARVIVDLENGCTFAFPPRLAQGLEGASDDQLCAVEILGQGYGLHWETLDVDLSLPGLMAGIFGTKAWMAKRAEPPPSAAKDAWSNLPR	not failed
MADNYVIWFENLRMTDVERVGGKNASLGEMISQLTEKGVRVPGGFATTAEAYRAFLAHNGLSERISAALAKLDVEDVAELARVGKEIRQWILDTPFPEQLDAEIEAAWNKMVADAGGADISVAVRSSATAEDLPDASFAGQQETFLNINGLDNVKEAMHHVFASLYNDRAISYRVHKGFEHDIVALSAGVQRMVRSDSGASGVMFTLDTESGYDQVVFVTSSYGLGENVVQGAVNPDEFYVFKPTLKAGKPAILRKTMGSKHIKMIFTDKAEAGKSVTNVDVPEEDRNRFSITDEEITELAHYALTIEKHYGRPMDIEWGRDGLDGKLYILQARPETVKSQEEGNRNLRRFAINGDKTVLCEGRAIGQKVGQGKVRLIKDASEMDSVEAGDVLVTDMTDPDWEPVMKRASAIVTNRGGRTCHAAIIARELGIPAVVGCGNATELLKNGQEVTVSCAEGDTGFIYAGLLDVQITDVALDNMPKAPVKVMMNVGNPELAFSFANLPSEGIGLARMEFIINRQIGIHPKALLEFDKQDDELKAEITRRIAGYASPVDFYVDKIAEGVATLAASVYPRKTIVRMSDFKSNEYANLVGGNVYEPHEENPMLGFRGAARYVADNFKDCFALECKALKRVRDEMGLTNVEIMIPFVRTLGEAEAVVKALKENGLERGKNGLRLIMMCELPSNAVLAEQFLQYFDGFSIGSNDMTQLTLGLDRDSGLVSESFDERNPAVKVMLHLAISACRKQNKYVGICGQGPSDHPDFAKWLVEEGIESVSLNPDTVIETWLYLANELNK	not failed
MADSKGTASPAKPLQPPSAATPIIERVIKQMESEDGWVSLGEVGKHLSNLASDFDPRTFGFRKLSDLVRKTNAFELEQQNGHLEHHHHHH	failed
MADSKKITFEMNESVLTAQFSRLDEMASVVERRFSELKMTIEDVGNADPGSKITESLGGLQSGLGTISSAFGQLGSSSEAITSGFGTAVGSVGGITDAFKNLGSSVQNGTLFSSLSTGIGGMSTMLGGVTGGVQGITNLASGFMELKNHLGGLMSSIGGVGGIMGKLTSPMGLVIIGIVALVAAFTYLMTTNESFRNTVMSVVTQVAQLFGQLVASLMPIIMQIITAVMQIGAALMPIVMQFISFFAQLLAQLMPFINMLIAMLMPVIMQIVQVVMSLVSALLPSIMTVIQGIMSVIQFLIPIIMKIATVVVQIVVTIISYISKIMPIVMMIIGVIISIITTIISYIVVIATTISNVIGKIISFIASVITSIIGIVQPIIGFITNIFSSIVTVIGAAFQMVFAVASKIWNAIMATISGIIDGIKSVITGISTTVSSVFNGVKRIITGVFDGIKGAWGGLTEFVGTIFDGVSNAIQTVVDNVKGFVNVVIRGINSAISLINKIPGVEIGKIPQLISGTTNFQGGFARMNEGGRGEMVVLPSGSQVIPHDATMKYARESARGNKSMLYTNQGTDLARVENLLERLLQKNPVIKMDDKVVSEVVSRNQANSFDQYNYTMGGAAYS	failed
MADTSCKLKPLCFRFVSTLKSPIAVITVTYSPGKYLASFLDSLPGATSRDTHVVMADNGSVDGVPEQAAASRSNVEFLSTGGNLGYGTAINIAARSLRARREAGEIDGEFFLVSNPDVVFDEDSIDQLLECAKRHPEAGAVGPLIREADGSAYPSARAVPTLANGIGHALLGAVWKSNPWSAAYRDDEDMDTERTAGWLSGSCLLLRWDAFDRVGGFDERYFMYMEDVDLGDRLVRAGFTNVFCPSAQIIHAKGHVAGKNPENMLPAHHESAYRFQADRLAKPWQAPIRLALRIGLKLRAGVAVGVSKMRTKASLEHHHHHH	failed
MAEAVERTDELVREYLLFRGFTHTLRQLDAEIKADKEKGFRVDKIVDQLQQLMQVYDLAALRDYWSYLERRLFSRLEDIYRPTINKLKTSLFRFYLVYTIQTNRNDKAQEFFAKQATELQNQAEWKDWFVLPFLPSPDTNPTFATYFSRQWADTFIISLHNFLSVLFQCMPVPVILNFDAECQRTNQVQEENEVLRQKLFALQAEIHRLKKEEQQQEEEAAALVQHKLPPYVSSMDRLGDSELALVCSQRPASLSQSPRVGFLSSLLPQSKKSPSRLSPAQGPPQAQSSAKKDSFSSQATKGKDSVPGAKDGKSLLSGPVPGEASWTHQRQRRLQDHGKERRELLSTSSSQSQCAERKPEVSGAEAEPCLELHMGPVEVLARVSTAGSEGDRPEQPFIVLSQEEYGEHHSSIMHCRVDCSGRRVASLDVDGVIKVWSFNPIMQTKASSISKSPLLSLEWATKRDRLLLLGSGVGTVRLYDTEAKKNLCEININDDMPRILSLACSPNGASFVCSAAAPSLTSQTDSSAPDIGSKGMNQVPGKLLLWDTKTMKQQLQFSLDPEPIAINCTAFNHNGNLLVTGAADGVIRLFDMQQHECAMSWKAHCGEVYSVEFSCDENAVYSIGEDRKFIQWNIHKSGLKVSESNLPSDATGPFVLSGYSGYKQVQVPRGRLFAFDSEGNYMLTCSATGGLIYKLGSEEKVLENCLSLGGHRAPVVTVDWSTAMDCGTCLTASMDGKIKLTTLLAHKL	failed
MAEEKVKDEAMQIMGMFQILPRLVVFDLDYTLWPFYCECRSKREMPSMYPQAKGILSALKEKGIEMAIASRSPTSDIANTFLDKLNIKPMFVAKVSKMGVTSILVGDGVTLGAFRQGLTEFTQNHNSIEKNKQVWRDKYSGKPTSSETDKD	failed
MAEGKAMSEFLPFSRPAMGVEELAAVKEVLESGWITTGPKNQALEQAFCQLTGNQHAIAVSSATAGMHITLMALKIGKGDEVITPSLTWVSTLNMISLLGATPVMVDVDRDTLMVTPEAIESAITPRTKAIIPVHYAGAPADIDAIRAIGERYGIAVIEDAAHAVGTYYKGRHIGAKGTAIFSFHAIKNITCAEGGLIVTDNENLARQLRMLKFHGLGVDAYDRQTWGRAPQAEVLTPGYKYNLTDINAAIALTQLVKLEHLNTRRREIAQQYQQALAALPFQPLSLPAWPHVHAWHLFIIRVDEQRCGISRDALMEALKERGIGTGLHFRAAHTQKYYRERFPTLSLPNTEWNSERICSLPLFPDMTTADADHVITALQQLAGQ	failed
MAEKQKHDGRVKIGHYVLGDTLGVGTFGKVKIGEHQLTGHKVAVKILNRQKIRSLDVVGKIKREIQNLKLFRHPHIIKLYQVISTPTDFFMVMEYVSGGELFDYICKHGRVEEMEARRLFQQILSAVDYCHRHMVVHRDLKPENVLLDAHMNAKIADFGLSNMMSDGEFLRTSCGSPNYAAPEVISGRLYAGPEVDIWSCGVILYALLCGTLPFDDEHVPTLFKKIRGGVFYIPEYLNRSVATLLMHMLQVDPLKRATIKDIREHEWFKQDLPSYLFPEDPSYDANVIDDEAVKEVCEKFECTESEVMNSLYSGDPQDQLAVAYHLIIDNRRIMNQASEFYLASSPPSGSFMDDSAMHIPPGLKPHPERMPPLIADSPKARCPLDALNTTKPKSLAVKKAKWHLGIRSQSKPYDIMAEVYRAMKQLDFEWKVVNAYHLRVRRKNPVTGNYVKMSLQLYLVDNRSYLLDFKSIDDEVVEQRSGSSTPQRSCSAAGLHRPRSSFDSTTAESHSLSGSLTGSLTGSTLSSVSPRLGSHTMDFFEMCASLITTLAR	failed
MAELILNQRPYPRDLGKIVCVGRNYAAHAKELNNPIPSSPILFIKPASSAVPFGPVFSIPKDQGSVHHELEIAILIGKALSRASTEQVAESIAGIGLGLDLTLRDVQDQLKEKGHPWERAKSFDGACPLTEFVAVNLASEDEWQAIGLTLEKNGQFQQQGSSAEMLFPILPLIAHMSEHFSLQPGDVILTGTPAGVGPLEVGDSLSAKLSLEDNVLLTCDGVVI	not failed
MAENLRDSVVHRDIALLSFCAPVMLERLPSSFVKHIELWLSAAGLGIIFGVGYASGPSGPAFWRLIAVIAVGIGVVHGFIFWAVRRRQRQVRRQSIREIQQMLSDVLKNKLAAINMYLPEDADEEMVKQELDGVRASIEDIADEIENISEESIEGWKEHYSGAVERTTNL	failed
MAENVGSDSSEFESISSSQKSYLKNCPFAGHEALPTKSTDSDNTEVLGNQISPAVVKTPILSFSSPTSLDSINDDVFRTPPENASLSSAAESEPRVGVSEIKLQGGSNLTTPFSMAETTLVSSSPSLPAENVRVSESNLKSSSSTAKTTPVSASPSVNARVSESNLNSSSSTTPVSVSPSEKVRVFETTPVSASPSEKVRVFETKCHSDSGDSVPLSSSPPSVAADDVRVPAKHLDSDSSPPTAIGRTMVLVKQRISASDNSASSSASEGTKVSKTENSGEVLPFKEIIEALLRNSGEKLNERDDKVSYVEILKQCGLKFPK	failed
MAEPKFTSFTTADFINDVDMELFIDAVEKTAPVWVKEMKSRGLLKFSMNRVWNKGEVFRVVMTYEYKDRASFEANIAYLEDTFGKNPVFLQLVTTAKFTTSRCLVVMEV	not failed
MAEPVDVLVLGGGPAALCIASELNQWGVAVGCIAPDPVDASWPNTYGIWADELKMVGLEHLLEHRWSDTVSFFGAGGSTAQDQSHAHGIDYGLFDRAELQRYWLERADGVVWHQDTAERVDATSATTSVSCVSGTTLQARLVIDASGSRTPHIRRPDQGPVAGQAAYGVVGRFSQPPIEAGRFVLMDYRCDHLSAAQRQEPPTFLYAMDLGDGVFFVEETSLALAPGFSYDVLKQRLQQRLDQRGVAITEVIHEEFCLFPMNLPLPDRSQPLLAFGGAASMVHPASGYMVGSLLRRGPDLAKALAEALANRNLGSAALAQRGWQALWPIELVLRHQLYQFGLGRLMGFNEALLRTHFATFFSLPREEWFGFLTNTLPLPRLMGVMLRLFALSPWELRRGLVLGAAMDQLPTFDQSSG	failed
